Laboratory results taken from patent publication US20260365740 (published 2026).
Where two headings read alike, the source gives them in different places.

T1: human TrkA ECD (human)
T1 chain: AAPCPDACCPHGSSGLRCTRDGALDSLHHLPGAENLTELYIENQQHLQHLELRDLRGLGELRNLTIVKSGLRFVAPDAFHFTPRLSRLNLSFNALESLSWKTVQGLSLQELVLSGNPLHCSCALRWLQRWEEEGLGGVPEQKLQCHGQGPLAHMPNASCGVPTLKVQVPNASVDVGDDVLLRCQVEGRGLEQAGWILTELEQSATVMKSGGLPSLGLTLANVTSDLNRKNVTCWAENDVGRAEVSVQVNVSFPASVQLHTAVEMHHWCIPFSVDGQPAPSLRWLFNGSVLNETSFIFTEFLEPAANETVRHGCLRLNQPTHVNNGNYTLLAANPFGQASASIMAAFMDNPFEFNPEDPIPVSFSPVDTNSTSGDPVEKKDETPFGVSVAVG


Legend:
human TrkA ECD [1] = target: T1, human TrkA ECD; assay: BLI
human TrkA ECD [2] = target: T1, human TrkA ECD; assay: BLI
TrkA (cell surface) = TrkA (cell surface) (human); assay: FACS
Chain of TrkA (cell surface) (human) (B2R6T5 whole entry): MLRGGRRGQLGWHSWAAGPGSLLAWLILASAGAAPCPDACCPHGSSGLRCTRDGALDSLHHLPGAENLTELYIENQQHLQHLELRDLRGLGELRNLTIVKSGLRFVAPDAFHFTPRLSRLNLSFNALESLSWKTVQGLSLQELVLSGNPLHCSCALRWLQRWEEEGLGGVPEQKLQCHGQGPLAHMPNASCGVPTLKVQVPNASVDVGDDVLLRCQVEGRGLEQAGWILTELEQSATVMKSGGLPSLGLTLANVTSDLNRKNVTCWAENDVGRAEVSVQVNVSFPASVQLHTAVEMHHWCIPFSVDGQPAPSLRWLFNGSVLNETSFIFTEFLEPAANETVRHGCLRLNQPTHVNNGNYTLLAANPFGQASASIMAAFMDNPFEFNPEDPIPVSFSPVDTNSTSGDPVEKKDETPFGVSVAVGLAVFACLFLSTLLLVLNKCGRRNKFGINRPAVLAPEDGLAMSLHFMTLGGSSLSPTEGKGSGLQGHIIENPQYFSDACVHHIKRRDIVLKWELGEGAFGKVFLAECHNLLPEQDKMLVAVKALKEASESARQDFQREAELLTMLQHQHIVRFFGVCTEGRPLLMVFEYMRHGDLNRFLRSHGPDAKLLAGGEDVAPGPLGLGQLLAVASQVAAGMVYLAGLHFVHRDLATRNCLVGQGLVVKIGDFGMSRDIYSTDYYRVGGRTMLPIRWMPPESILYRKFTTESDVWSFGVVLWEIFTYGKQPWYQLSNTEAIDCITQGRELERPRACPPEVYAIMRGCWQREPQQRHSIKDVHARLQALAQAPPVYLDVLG

Binder | Kd (human TrkA ECD [1]) | Kd (human TrkA ECD [2]) | EC50 (TrkA (cell surface))
Chi70D3A6 (antibody, V domains shown) VH: EVKLVESGGDLVKPGGSLKLSCTASGFTFTYYAMSWVRQTPEKRLEWVATISGGGDTYYLDSVKGRFTISRDNAGNILYLQMSSLRSEDTAMYYCARGVGGNFFDYWGQGSTLTVSS VL: QIVLTQSPAIMSASPGEKVTISCSASSSVSYMYWYQQKPGSSPKPFIYRTSNLASGVPSRFSGSGSGTSYSLTVSTMEAEDAATYYCQLYHSYTPITFGAGTKLELK | 0.771 nM | – | –
Chi99H4D5 (antibody, V domains shown) VH: EVKLVESGGGLVKPGGSLKLSCAASGFTFSYYAISWLRQTPEKRLEWVASISGNGDTYYLDSVKGRFTISRDNARNILYLQMSSLRSEDTAMYYCARGVGGNYFDYWGQGTTLTVSS VL: DIVMTQSPAIMSASPGEKVTISCSASSSVSYMYWYQQKPGSSPKPLIYRTSNLASGVPARFSGSGSGTSYSLTISTMEAEDAATYYCQQYHSYTPITFGAGTKLDLK | 1.3 nM | – | –
Hu70D3A6-V12 (antibody, V domains shown) VH: EVQLVESGGGLVKPGGSLRLSCAASGFTFTYYAMSWVRQAPGKGLEWVSSISGGGDVYYADSVKGRFTISRDNAKNTLYLQMNSLRAEDTAVYYCARGVGGNYFDYWGQGTLVTVSS VL: DIQMTQSPSSLSASVGDRVTITCSASSSVSYMYWYQQKPGKAPKPLIYRTSNLASGVPSRFSGSGSGTDFTLTISSLQPEDFATYYCQLYHSYTPITFGQGTKLEIK | – | 0.591 nM | ~0.289 nM
Hu99H4D5-V6 (antibody, V domains shown) VH: EVQLVESGGGLVKPGGSLRLSCAASGFTFSYYAISWVRQAPGKGLEWVSSISGGGDVYYADSVKGRFTISRDNAKNTLYLQMNSLRAEDTAVYYCARGVGGNYFDYWGQGTLVTVSS VL: DIQMTQSPSSLSASVGDRVTITCSASSSVSYMYWYQQKPGKAPKPLIYRTSNLASGVPSRFSGSGSGTDFTLTISSLQPEDFATYYCQQYHSYTPITFGQGTKLEIK | – | 0.753 nM | ~0.362 nM
